Assay results published in patent US20250049939A1, “NOVEL FLT3 ANTIBODIES AND ANTIBODY-DRUG-CONJUGATES BASED THEREON, THERAPEUTIC METHODS AND USES THEREOF IN COMBINATION WITH TYROSINE KINASE INHIBITORS” (TUBULIS GmbH, priority 2021, published 2025).

T1: recombinant human FLT3 (Homo sapiens, UniProt P36888)
T1 construct: purchased Sino Biological 10445-H08H
T1 sequence (P36888 27-541 limits assumed): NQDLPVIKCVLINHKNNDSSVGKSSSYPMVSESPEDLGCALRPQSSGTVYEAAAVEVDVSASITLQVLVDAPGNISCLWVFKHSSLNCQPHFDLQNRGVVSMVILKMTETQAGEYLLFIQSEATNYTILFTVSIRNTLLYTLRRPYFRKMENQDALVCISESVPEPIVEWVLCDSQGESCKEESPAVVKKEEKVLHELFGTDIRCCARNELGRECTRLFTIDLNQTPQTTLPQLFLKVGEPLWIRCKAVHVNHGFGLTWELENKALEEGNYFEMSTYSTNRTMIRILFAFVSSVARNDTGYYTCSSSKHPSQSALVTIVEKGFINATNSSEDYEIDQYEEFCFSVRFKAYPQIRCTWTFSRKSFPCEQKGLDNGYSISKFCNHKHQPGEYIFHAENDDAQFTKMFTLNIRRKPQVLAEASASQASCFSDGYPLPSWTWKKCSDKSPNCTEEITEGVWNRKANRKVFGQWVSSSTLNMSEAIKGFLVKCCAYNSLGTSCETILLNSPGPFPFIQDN

T2: Ba/F3 cells expressing human wildtype FLT3 (Homo sapiens, UniProt P36888)
T2 construct: expressed in transfected cells; host or cells: Ba/F3 cells, retrovirally transduced with MSCV-IRES-YFP (pMIY) vector
T2 sequence (P36888 27-993): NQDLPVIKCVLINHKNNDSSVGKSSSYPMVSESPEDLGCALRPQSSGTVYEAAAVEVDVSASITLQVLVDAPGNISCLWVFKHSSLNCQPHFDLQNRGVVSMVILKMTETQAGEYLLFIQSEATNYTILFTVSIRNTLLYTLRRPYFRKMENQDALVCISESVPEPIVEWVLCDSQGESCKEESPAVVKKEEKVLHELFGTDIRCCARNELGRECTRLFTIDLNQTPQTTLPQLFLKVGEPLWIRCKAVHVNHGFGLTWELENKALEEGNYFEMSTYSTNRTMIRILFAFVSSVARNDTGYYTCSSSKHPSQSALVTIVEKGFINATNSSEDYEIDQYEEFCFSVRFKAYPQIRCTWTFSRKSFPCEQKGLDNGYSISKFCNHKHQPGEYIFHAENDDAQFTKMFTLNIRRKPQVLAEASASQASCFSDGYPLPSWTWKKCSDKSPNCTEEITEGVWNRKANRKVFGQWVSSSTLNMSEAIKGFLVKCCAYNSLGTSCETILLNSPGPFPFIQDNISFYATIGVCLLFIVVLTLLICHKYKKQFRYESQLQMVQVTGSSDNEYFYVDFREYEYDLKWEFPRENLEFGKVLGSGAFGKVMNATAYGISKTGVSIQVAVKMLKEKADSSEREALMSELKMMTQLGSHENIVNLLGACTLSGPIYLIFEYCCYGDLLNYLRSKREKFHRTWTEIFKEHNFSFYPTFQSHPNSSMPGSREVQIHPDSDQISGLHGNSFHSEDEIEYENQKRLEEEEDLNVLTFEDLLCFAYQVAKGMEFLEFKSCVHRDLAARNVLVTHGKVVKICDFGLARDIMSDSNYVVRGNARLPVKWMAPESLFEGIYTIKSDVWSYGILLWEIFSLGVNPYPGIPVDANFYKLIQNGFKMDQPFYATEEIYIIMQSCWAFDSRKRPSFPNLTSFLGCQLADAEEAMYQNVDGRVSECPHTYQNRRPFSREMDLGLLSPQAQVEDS


Experiments:
[1] = tested on: MOLM-13 (FLT3 positive) cells; assay: Temperature induced internalization in MOLM-13, flow cytometry; assay type: cell-based, human; conditions: 30 min at 37° C. compared to 4° C.
Procedure: For antibody binding studies, cells were stained on ice with primary mouse, rat or human anti-FLT3 antibodies (in house) and secondary antibody Goat F(ab′)2 Anti-Human Ig-PE (2012-09), Goat Anti-Mouse IgG (H+L)-PE (1032-09) or Goat Anti-Rat IgG (H+L)-PE (3052-09) purchased from Southern Biotech. For internalization experiments, cells incubated with anti-FLT3 antibodies were washed and incubated for 30 min at 4° C. or 37° C. followed by staining with secondary antibody.

[2] = molecular target: T1, recombinant human FLT3; assay: ELISA affinity to recombinant human FLT3; assay type: binding; conditions: chimeric Ab clones
Description: FIG. 1: Evaluation of epitope specificity and internalization capability of anti-FLT3 monoclonal antibodies. (A) Affinity of seven anti-FLT3 monoclonal antibody (mab) clones to recombinant human FLT3 measured in enzyme-linked immunosorbent assay (ELISA) normalized to the binding of the antibodies to BSA control. […] (B) Schematic FLT3 receptor. Black arrows indicate common mutations and blue arrows indicate the three identified epitopes of seven anti-FLT3 antibodies analyzed in linear epitope mapping by PEPperPRINT. Figure was created with BioRender.com. (C) Binding and temperature induced internalization of anti-FLT3 antibodies in Ba/F3 cells expressing human wildtype FLT3. Internalization was induced by incubation for 30 min at 37° C. (grey) compared to 4° C. (black). Remaining surface-bound antibody was detected in flow cytometry. MFI was normalized to control human IgG1 binding. MFI=mean fluorescence intensity. […] (D) Cell surface binding of 20D9 mab or control human IgG1 antibody to Ba/F3 cells stably expressing pMIY (Ba/F3-pMIY) empty vector (ev), human wildtype (hFLT3 wt) or ITD mutant human FLT3 (hFLT3ITD) was measured in flow cytometry. Mean±s.d. of n=3. (E) Temperature induced internalization of 4B12 mab in MOLM-13 (FLT3 positive) cells after 30 min incubation at 37° C. compared to 4° C. and HL-60 (FLT3 negative) after 37° C. incubation assessed in immunofluorescence staining. Red=FLT3 staining by 4B12, Green=membrane staining by Vybrant DiO, Blue=nuclear staining by DAPI. Scale bar 5 μm. Representative pictures are shown. (F) Cell surface binding of 20D9 mab or control hIgG1 antibody to Ba/F3-pMIY ev, hFLT3 wt, murine (mFLT3 wt) or cynomolgues monkey FLT3 (cynoFLT3 wt) was measured in flow cytometry. Mean±s.d. of n=3. (G) Cell surface binding of 20D9 mab or control hIgG1 antibody to Ba/F3-PMIY ev, hFLT3 wt or epitope mutant FLT3 (hFLT3/S50P/P54R) measured in flow cytometry. Mean±s.d. of n=3. (H) Cell surface binding of 20D9 mab or control hIgG1 antibody to Ba/F3-PMIY ev, hFLT3 wt or human CD64 (hCD64) measured in flow cytometry. Mean±s.d. of n=3.
Maxisorp plates were coated with human recombinant FLT3 protein (10445-H08H, Sino Biological). Chimeric (20D9) or humanized anti-FLT3 monoclonal antibodies (in house) and secondary alkaline phosphatase conjugated rabbit anti-human IgG antibody (309-055-008, Jackson Immunoresearch) were used. For detection, Attophos Fluorescent Substrate System (S1000, Promega) was applied. The fluorescence was read with excitation of 405 nm and emission at 500-550 nm. The calculation of the dissociation constant KD was performed using GraphPad Prism version 9.4.0.

[3] = molecular target: T2, Ba/F3 cells expressing human wildtype FLT3; assay: Temperature induced internalization in Ba/F3-FLT3, flow cytometry; assay type: cell-based; conditions: 30 min at 37° C. compared to 4° C.
Description: FIG. 1: Evaluation of epitope specificity and internalization capability of anti-FLT3 monoclonal antibodies. (A) Affinity of seven anti-FLT3 monoclonal antibody (mab) clones to recombinant human FLT3 measured in enzyme-linked immunosorbent assay (ELISA) normalized to the binding of the antibodies to BSA control. […] (B) Schematic FLT3 receptor. Black arrows indicate common mutations and blue arrows indicate the three identified epitopes of seven anti-FLT3 antibodies analyzed in linear epitope mapping by PEPperPRINT. Figure was created with BioRender.com. (C) Binding and temperature induced internalization of anti-FLT3 antibodies in Ba/F3 cells expressing human wildtype FLT3. Internalization was induced by incubation for 30 min at 37° C. (grey) compared to 4° C. (black). Remaining surface-bound antibody was detected in flow cytometry. MFI was normalized to control human IgG1 binding. MFI=mean fluorescence intensity. […] (D) Cell surface binding of 20D9 mab or control human IgG1 antibody to Ba/F3 cells stably expressing pMIY (Ba/F3-pMIY) empty vector (ev), human wildtype (hFLT3 wt) or ITD mutant human FLT3 (hFLT3ITD) was measured in flow cytometry. Mean±s.d. of n=3. (E) Temperature induced internalization of 4B12 mab in MOLM-13 (FLT3 positive) cells after 30 min incubation at 37° C. compared to 4° C. and HL-60 (FLT3 negative) after 37° C. incubation assessed in immunofluorescence staining. Red=FLT3 staining by 4B12, Green=membrane staining by Vybrant DiO, Blue=nuclear staining by DAPI. Scale bar 5 μm. Representative pictures are shown. (F) Cell surface binding of 20D9 mab or control hIgG1 antibody to Ba/F3-pMIY ev, hFLT3 wt, murine (mFLT3 wt) or cynomolgues monkey FLT3 (cynoFLT3 wt) was measured in flow cytometry. Mean±s.d. of n=3. (G) Cell surface binding of 20D9 mab or control hIgG1 antibody to Ba/F3-PMIY ev, hFLT3 wt or epitope mutant FLT3 (hFLT3/S50P/P54R) measured in flow cytometry. Mean±s.d. of n=3. (H) Cell surface binding of 20D9 mab or control hIgG1 antibody to Ba/F3-PMIY ev, hFLT3 wt or human CD64 (hCD64) measured in flow cytometry. Mean±s.d. of n=3. […]

Affinity Kd [2]	Internalization in Ba/F3-FLT3 [3]	Molecule	Internalization in MOLM-13 [1]
3.981 µg/mL	26%	2F12: chimeric anti-FLT3 antibody from rat; VH SEQ ID NO: 7, VL SEQ ID NO: 8 (antibody, V domains shown, Clone 2F12, heavy chain variable region without a signal seqeunce; Clone 2F12, light chain variable region without a signal seqeunce) VH: EVKLEESGGGLVQPGGSMKLSCVASGFTFSNYWMNWVRQSPEKGLEWVAQIRLKSDNYATHYAESVKGRFTISRDDSKDSVYLQMNNLRAEDTGIYYCAVSLARSDYWGQGTTLTVSSA VL: DVVMTQSPPSLSASLGDKVTITCQASQNINKYIAWYQQKPGKAPRLLIRYTSTLESGTPSRFSGSGSGRDFSFSISNVESEDIASYYCLQYVNLPRTFGGGTKLELKR	12%
0.1339 µg/mL	–	19H5: chimeric anti-FLT3 antibody from rat; VH SEQ ID NO: 17, VL SEQ ID NO: 18 (antibody, V domains shown, Clone 19H5, heavy chain variable region without a signal seqeunce; Clone 19H5, light chain variable region without a signal seqeunce) VH: MVQPSQTLSLTCTVSGFSLTSYNVNWVRQPPGKGLEWIGAMWRGGGTDYNPALKSRLSISRDTSKSQVFLKMNRLQTEDTAIYFCTRGFGDYWGQGVMVTVSSA VL: DVQMTQSPSSMSASLGDRVTFTCQASQDIGNNLIYFQQKPGKSPRRMICCATNLAHGVPSRFSGSRSGSDYSLTLVSLESEDVADYHCLQYEHYPRTFGGGTKLELKR	–
